Target: H7N9 A/Shanghai/2/2013 hemagglutinin trimer, wild type (influenza A virus A/Shanghai/02/2013 (H7N9)) (UniProt R4NN21)
Test: cryo-EM structure

With “H7N9 A/Shanghai/2/2013 hemagglutinin trimer, wild type (from UniProt R4NN21) (natural protein)” the stoichiometry N was 3.
